The source of these data is publication PMC6614843, “Stability and sub-cellular localization of DNA polymerase β is regulated by interactions with NQO1 and XRCC1 in response to oxidative stress” (Nucleic Acids Research, 2019).

Experiment [1] addresses Polβ(WT), purified recombinant (human, UniProt P06746 1-335). Description: SPR; OpenSPR localized SPR (Nicoya); Polβ(WT) or Polβ(T304I) covalently coupled (EDC/NHS) to a carboxyl sensor; XRCC1 injected at 10, 100 nM, 1, 2, 5 and 10 μM; 25 mM HEPES pH 8.0, 150 mM NaCl, 200 mM MgCl2, 0.1% Tween 20, 1 mM TCEP; KD from response versus concentration (affinity model). The note with it: both partners purified.

Experiment [2] has as its target Polβ(T304I), purified recombinant (human, UniProt P06746 1-335, T304I). Described as above. The note with it: both partners purified.

B1: NTD-XRCC1(1-151)-His (domain or fragment)
chain: MPEIRLRHVVSCSSQDSTHCAENLLKADTYRKWRAAKAGEKTISVVLQLEKEEQIHSVDIGNDGSAFVEVLVGSSAGGAGEQDYEVLLVTSSFMSPSESRSGSNPNRVRMFGPDKLVRAAAEKRWDRVKIVCSQPYSKDSPFGLSFVRFHS
notes: N-terminal domain of XRCC1, residues 1-151; human by the plasmid's name (hXRCC1); The name puts the His tag after the fragment; also called N-terminal fragment of XRCC1
For the molecule B1, the binding result in experiment [1] is “binds”. For the same molecule, in experiment [2], the “mean fold decrease of binding affinity (KD) against Polβ(WT)” value was found to be 6.18 fold.
